Assay results as given in the nanobody polyreactivity screen of Harvey et al. (2022).

Test: yeast display, Sf9 membrane polyspecificity reagent, FACS + sequencing; frameworks hold sequencing errors
Method in brief: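 A nanobody's polyreactivity label depends on the gate it was sorted from. Yeast display cells were stained with 10% biotinylated, detergent-solubilized Sf9 membrane reagent for 1 hour at 4 °C, enriched on streptavidin microbeads and sorted by FACS. The low and high (top ~1%) gates were set on anti-HA fluorescence for expression and streptavidin fluorescence for reagent binding.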

| Sequence | polyreactivity (PSR sort gate) |
| --- | --- |
| QVQLVESVGGLVQAGGSLRLSCAASGSTFGHNAMGWYRQAPGKERELVAVITSGGSTYYADSVKGRFTISRDNAKNTVYLQMNSLKPEDTAVYYCAKRYWSRGSKSSPYAYDYWGQGTQVTVSS | high polyreactivity |
| QVQLVESGGGLVQAGGSLRLSCAASGRIFYQYAMGWYRQAPGKEREFVAAISISGTSTYADSVKGRFTISRDNAKNTVYLQMNSLIPEDTAFYYCNVGPRAGWYRSNYDYWGQGTQVTVSS | low polyreactivity |
| QVQLVESAGGLVQAGGSLRLSCAASGSTFYTYTMGWYRQAPGKERELVAAISSSGGDTYYADSVKGRFTISRDNAKNTVYLQMNSLKPEDTAVYYCAAAGPYGAVWRNDYWGQGTQVTVSS | low polyreactivity |
| QGQLVESRGGLVQAGGSLRLICAASGFIFFIKSMGWYRQAPGKERELVAAINWTGGSTYADSVKGRFTISRDNAKNTVYLQMNSLKPEDTAVYYCAADPWDIYRRLSQGDHDYWGQGTQVTVSS | low polyreactivity |
| QVQLVESGGGLVQAGGSLRLSCASSGSIFGGYAMGWYRQAPGKERELVAAITSSGGLTYYADSVKGRFTISRDNAKNTVYLQMNCLKPEDTAVYYCAAVTVAGYDYWGQGTQVTVSS | high polyreactivity |
| QVQLVESGGGLVQAGGSLRLSCAASGRTFVWNVMGWYRKAPGKEREFVAAISGGSTYYADSVKGRFTISRDNAKNTVYLQMNRLKPEDTAVNYCAAASKLHPRYEYWGQGTQVTVSS | low polyreactivity |
| QVQLVESGGGLVQAGGSLRLSCAASGFTFGSYAMGWYRQAPGKERELVAGISRGGSTNYADSVKGRFTISRDNAKNTVYLQMNSLKPEDTAVYYCAARAVYVADTGATPAGYDYWGQGTQVTVSS | low polyreactivity |
| QVQLVESGGGLVQAGGSLRLSCAASGRIFRRNTKGWYRQAPGKERELVAAITSAGGSTYADSVKGRFTISRDNAKNTVYFQMNSLKPEDTAVYYCATYVAYHRGYRTYDHWAQGTQVTVSS | low polyreactivity |
| QVQLVESGGGLVQAGGSLRLSCAASGRTFPYYTMGWYIQAPGKERELVAAIDGSGDNTYYADSVKGRFTISRDYAKNTVYLQLNSLKPEDNAVYYCTAEQWWSLDYWGQGTQVTVSS | low polyreactivity |
| QVQLVESGGGLVQAGGSLRLSFAASGRIIRGYAMGRDRQAPGKERELVAAINGGDSTFADSVKGRFTISRDNAKNTVYLQMNSLKPEDTAVYYCAAAHYFLGPQGASFYYWGQGTQVTVSA | low polyreactivity |
| QVQHVESGGRLVQAGGSLRLSCAASGSIFAAYAMGWYRQAPGKERELVAAISRSGASTYYADSVKGRFTISRDNAKNTVYLQMNSLKPVDTAVYYCAADTYAYPHDNYDYWGQGTQVTVSS | low polyreactivity |
| QVQLVESGGGLVQAGGSLRLSCAASGSIFSDYAMGWYRQAPGKEREFVAAIDSSGSTYYADSVKGRFTISRDNAKNTVYLQMNSLKPEDTAVYYCAADHLLYSVYIYYYWGQGTQVTVSS | low polyreactivity |
| QVQLVESGGGLVQAGGSLRLSCAASGSIFSGKAMGWYRQAPGKERELVASINRSGGSTYSADSVKGRFTISRDNAKYTVYLQMNSLKPEDTAVYSCAARRVWLAGYDSWGQGTQVTVSS | low polyreactivity |
| QVQLVESGGGLVQAGGSLRLSCAPSGIIFPEYDMGWYRQPPGKERELVAAITKSDGRTYYADSVKGRFTISRDNAKNSVYLQMNSLKPEDTAVYYCNADPSVVAYVGFVSWGQGTQVTLSS | low polyreactivity |
| QVQLVESGGGLDQAGGSLRLSCAASGRIFYYYALGWYRQAPGKERELVAAITWIGTSTYYADSVKGRFTISRDNGKNTVYLQMNSLKPEDTAVYYCAAEGWVGAWWYVLDVRYDYWGQGTQVTVSS | low polyreactivity |
| QVQLVESGGGLVQAGGSLRLSCAASGGIFIANAMGWYRQAPGKERELVAAISSSGGSTYYADSVKGRFTISRDNAKNTVYLQMNSLKPEDTAVYYCNKLLTRSYRTYGRYGYWGQGTQVTVSS | high polyreactivity |
| QVQLVESGGGLVHAGGSLRLSCAASGRTFKFYAMGWYRQAPGKERELVAAISGSGGTTRYADSVKGRFTISRDNAKNTVYLQMNSLKPEDTAVYYCAARPPGLALEYGYWGQGTQVTVSS | high polyreactivity |
| QVQLVESGGGLVQAGGSLRLSCAASGRTIKYNAMGRYRQGPGKERELVAAITYSGGSTYYADSVKGRFTIARDNAKNTVYLQMNSLKPEDTSVYYCAAESRPYDPGIYGDYDYWGQGTQVTVSS | low polyreactivity |
| QVHLVESGGGLVQAGGSLRLSCAASGSIFAINAMGWYRQAPGKERELVARISWSGGRTYYADSVKGRFTISRDNAKNTVYLQMNSLKPEDTAVYYCAKRYYKSLNRDEFDSWGQGTQVTVSS | high polyreactivity |
| QVKLVESGGGLVKAGGRLRLSCAASGSTFRKYTMGWYRQAPWKERELVAAITYRGDRTYYADSVKGRFTISRDNAKNNVYLQMNSLKQEDTAVYYCAAVYVRGDRYDYWGQGTQVTVSS | high polyreactivity |
| QVQLVESGGGLVQAGGSLRLSCAASGSTFHAYAMGWYRQAPGKERELVAGISWSGGDTTYADSVKGRFTISGDNAKNTVYLQMNSLKPEDTAVYYCAAAGRDPDNYLILNYWGQGTQVTVSS | low polyreactivity |

| Sequence | polyreactivity (PSR sort gate) |
| --- | --- |
| QVQLVESGGGLVQAGGSLRLSCAASGHIFTRNSMGWYRQAPGKERELVAAISRTGGSTYYADSVKGRFTISRDNAKNTVYLQMNSLKPEDTAVYDCAKRRQASEDYWGQGTQVTVSS | high polyreactivity |
| QVQLVESGGGLVQAGGSLRLNCAASGSTFARNAMGWYRQAAGKERELVAAISGSGGSTYYADSVKGRFTISRDNAKNTVYLQMNSLKPEDTAVYYCAAARRYYAYRYDYWGQGTQVTVSS | high polyreactivity |
| QVQLVESGGGLVQAGGSLRLSCAASGFIFAQNAMGWYRQAPGKERELVAAISGSGGRTYYADSVKGRFTISRDNAKNTVYLQMNSLKPEDTAVYYCAAQSFSGYWGQGTQVTVSS | high polyreactivity |
| QVQLVESGGGLVQAGGSLRLSCAASGYTFYVYAMGWYRQAPGKERELVAAIRSGGTTYYADSVKGRFTISRDNAKYTVYLQMNSLKPEDTAVYYCAADVQDRYHRAWYDYWGQGTQVTVSS | low polyreactivity |
| QVQLVESGGGLVQAGGSLRLSCAASGSIFDYNAMGWYRQAPGKERELVAAITYSGGTTYADSVKGRFTISRDNAKNTVYLQMNSLKPEDTAVYYCAATSYARFAYYYWGQGTQVTVSS | low polyreactivity |
| QLQLVESGRGLVQAGGSLRLRCAASVSTFGANAMGWYRQAPGKESELVATISSGGRTYYADSVKGRFTISRDNAKNTVYLQMNSLKPEDTAVYYCNAGADYTYVYISVYVLYDEWGQGTQVTVSS | low polyreactivity |
| QVQLVESGGGLVQAGGSLRLSCAASGRTIDSYAMGWSRQAPGKEREFVAAISYSGTSTYYADSVKGRFTISRDNAKNTVYLQMNSLKPEDTAVYYCSKEYNFRLWGQGTQVTVSS | low polyreactivity |
| QVQLVESGGGLVQAGGSLRLSCAASGRIFYQNAMGWYRPAPGKERELVADISSGGSTYYADSVKGRFTISRDNAKNTVYLQMNSVKPEDTAVYYCHTPSGPGTVGSYRRKWYGYWGQGTQVTVSS | low polyreactivity |
| QVQLVESGGGLVQAGGSLRLSCAASGRTFVNYAMGWYRQAPWKERELVAAITWSSGRTYYADSVKGRFTISRDNAKNTVYLQMNSLKPEDTAVYYCAAVGRYSGYDYWGQGTQVTVSS | high polyreactivity |
| QVQLVESGGGLVQAGGSLRLSCAASGSTISRNAMGWYRQAPGKERELVAAITSKGDSTYYADSVKGRFTISRDNAKNTVYLQMNSLKPEDTAVYYCAAVRRGYKYDYWGQGTQVTVSS | low polyreactivity |
| QVQLVESGGGLVQAGGSLRLSCAASGRIFGYYTMGWYRQAPGKERELVAAINGRGTSTYYADSVKGRFTISRDNAKNTVYLQMNSLKPEDTAVYYCAARYTRTVGYDYWGQGTQVTVSS | high polyreactivity |
| QVQLVESGGGLVQAGGSLRLSCSASGSTFRWNAMGWYRQAPGKERELVASITSGGSTNYADSVKGRFTMSRDNAKNTVYLQLNSLKPEDTAVSYCNADVRRYSNYVWLYDYWGQGTQVTVSS | low polyreactivity |
| QVQLVESGGGLVQAGGSLRLSCAASGLIFSSNAMGWYRQAPGKERELVAAISRRGGNTYYADSVKGRFTISRDNAKNTVYLQMNSLKPEDTAVYYCAARRYYVASIYRYDSWGQGTQVTVSS | high polyreactivity |
| QVQLVESGGGLVQAGGSLRLSCAASGSIFKYYTMGWYRPAPGKERELVAAITWRGGRTYYADSVKGRFTISRDNAKNTVYLQMNSLKPEDTAVYYCNTASWGFASYYYTYNYWGQGTQVTVSS | high polyreactivity |
| QVQLVESGGGLVQAGGSLRLSCAASGITFRYYAMGWYRQAPGKERELVAAISRSGGRTYYADSVKGRFTISRDNAKNTVYLQMNSLKPEDTAVYYCAVAVRRGRAYDYWGQGTQVTVSS | high polyreactivity |
| QVQLVESGGGLVQAGGSLRLSCAASGSTSRIYGMGWYRQAPGTDRELVAAITRSGNTYADSVKGRFTISRDNANNTDYLQMNSLKPDDTAVYYCATAWRFTYFGYEYWGQGTQVTVSS | high polyreactivity |
| QVQLVESGGGLVLAGGSLRLSCAASGFIFDIYAMGCYRQAPGKERELVASITWDDGSTYYADSVKGRFTISRDNAKNTVYLQMNSLNPEDTAVYYCAADFEAGGYSLDYWGHGTQVTVSS | low polyreactivity |
| QVQLVEAGGGLVQAGGSLRLSCAASGGTFNSNAMGWYRQAPGKERELGASITWRGGTYYADSVKGRFTISRDNAKNTVYLQMNSLKPEDTAVYYCAARGTIPGIHWIYYYWGQGTQVTVSS | high polyreactivity |
| QVQLVESGGGLVQAGGSLRLSCAASGRTFRRNTMGWYRQAPGQEWELVAAISSSGSSTYYADSVKGRFTISRDNAKNTVYLQMKSLKPEDTAVYYCAATGYPRFGYWGQGTQVTVSS | high polyreactivity |
| QVQLVESGGGLVQAGGSLRLSCAASGSIFVYYGMGWYRQAPGKERELVAAISSGGSTHYADSVKGRFTISRDNAKNTVYFQMNSLKPEDTAVYYCAADRFFWLRSYPRYYYWGQGTQVTVSS | low polyreactivity |
